In publication PMC5766609 (Scientific Reports, 2018):
Read-outs that look alike come from different tables or passages of the source. Starred links: 1 amine or outer side, 2 acyl side, 3 side chain; linkers in the order of their positions; H or OH if unused. Non-standard residues stand in square brackets, D forms with d. Residues, ends and D or L forms follow the SMILES beside them. Groups on a side chain read outwards from the residue. No end group written: not given here. *: point of attachment. γGlu = O=C(O)[C@H](CCC(=O)[*:2])N[*:1]; Palmitoyl = CCCCCCCCCCCCCCCC(=O)*

Key:
[1] = molecular target: T1, human glucagon receptor (GCGR) (Homo sapiens, UniProt P47871); assay: cAMP assay on CHO-JumpIn cells stably transfected with human glucagon receptor (HitHunter cAMP); format: cell-based; details: cAMP accumulation, CHO-JumpIn cells with human GCGR, value ± spread;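 also: peptides tested as 4-fold serial dilutions starting from a 2 µM solution, cells exposed 1 hr at RT in darkness, cAMP quantified against a cAMP standard curve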
T1 construct: expressed in transfected cells; host or cells: CHO-JumpIn cells, stably transfected
T1 sequence (P47871 26-477): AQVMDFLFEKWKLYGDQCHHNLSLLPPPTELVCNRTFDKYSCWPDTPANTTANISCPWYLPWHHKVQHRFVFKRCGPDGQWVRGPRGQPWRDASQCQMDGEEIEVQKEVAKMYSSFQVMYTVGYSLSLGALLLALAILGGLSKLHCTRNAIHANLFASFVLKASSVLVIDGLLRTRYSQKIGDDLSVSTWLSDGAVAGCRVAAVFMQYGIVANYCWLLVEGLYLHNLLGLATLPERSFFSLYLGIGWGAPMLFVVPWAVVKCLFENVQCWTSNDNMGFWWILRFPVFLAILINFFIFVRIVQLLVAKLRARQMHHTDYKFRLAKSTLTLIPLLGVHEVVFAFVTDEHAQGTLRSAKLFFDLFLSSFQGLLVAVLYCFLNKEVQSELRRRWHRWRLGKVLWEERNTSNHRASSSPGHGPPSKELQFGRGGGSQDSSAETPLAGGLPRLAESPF

[2] = molecular target: T2, human GLP-1 receptor (GLP1R) (Homo sapiens, UniProt P43220); assay: cAMP assay on CHO-JumpIn cells stably transfected with human GLP-1 receptor (HitHunter cAMP); format: cell-based; details: value ± spread;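 also: peptides tested as 4-fold serial dilution series, cells exposed 1 hr at RT in the dark, cAMP quantified against a cAMP standard calibration curve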
T2 construct: expressed in transfected cells; host or cells: CHO-JumpIn cells, stably transfected
T2 sequence (P43220 24-463): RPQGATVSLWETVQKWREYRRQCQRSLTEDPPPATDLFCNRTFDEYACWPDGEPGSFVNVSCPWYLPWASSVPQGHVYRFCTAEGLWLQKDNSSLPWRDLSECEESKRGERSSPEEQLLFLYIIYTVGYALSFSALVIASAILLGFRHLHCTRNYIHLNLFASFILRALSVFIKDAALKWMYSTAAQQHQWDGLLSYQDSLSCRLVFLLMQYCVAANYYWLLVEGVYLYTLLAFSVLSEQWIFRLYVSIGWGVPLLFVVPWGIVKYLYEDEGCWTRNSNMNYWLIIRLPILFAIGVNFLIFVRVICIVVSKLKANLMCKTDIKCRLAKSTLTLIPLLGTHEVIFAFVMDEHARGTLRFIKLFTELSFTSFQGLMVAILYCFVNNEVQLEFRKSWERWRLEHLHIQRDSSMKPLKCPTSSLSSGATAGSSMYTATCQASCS
Description: Briefly, a 2 μM solution of peptide was prepared, and 4-fold serial dilutions were made. 150 nL of the above titration was then dispensed into an Optiplate384 using an Echo555. […] The HitHunter® cAMP Assay kit calibration curve was prepared following the manufacturer’s protocol (DiscoveRx-90-0075L). 30,000 cells/well were added to the peptides, spun briefly at 500 rpm for 15 s and incubated at RT in the dark for 1 hr. The assay was developed as per the manufacturer’s instructions. cAMP accumulation due to GLP1R agonism or GCGR agonism was measured using an EnVision platereader (PerkinElmer), and calibrated using the cAMP standard curve. Data were analyzed using Assay Data Analyzer (ADA).

[3] = molecular target: human GLP-1 receptor (human) (UniProt P43220)
human GLP-1 receptor (human), sequence (P43220 24-463): as above

[4] = molecular target: glucagon receptor (human) (UniProt P47871)
glucagon receptor (human), sequence (P47871 26-477): as the sequence (P47871 26-477) above

[5] = Table 2, buffer PBS, 0.1% BSA, 100 μM RO 20-1724, 20% serum, 1 hr at RT, read-out: EC50 GCGR
[6] = Table 2, cAMP accumulation, buffer PBS, 0.1% BSA, 100 μM RO 20-1724, 20% serum, 1 hr at RT, read-out: EC50 GLP1R

Row | Molecule | EC50 GLP1R (nM); cAMP assay on CHO-JumpIn cells with human GLP1R [3] [nM] | EC50 GCGR (nM); cAMP assay on CHO-JumpIn cells with human GCGR [4] [nM] | also measured
1 | CSCC[C@H](NC(=O)[C@H](CCCNC(=N)N)NC(=O)[C@H](CO)NC(=O)[C@H](CC(=O)O)NC(=O)[C@H](CC(C)C)NC(=O)[C@H](Cc1ccc(O)cc1)NC(=O)[C@H](CCCCN)NC(=O)[C@H](CO)NC(=O)[C@H](Cc1ccc(O)cc1)NC(=O)[C@H](CC(=O)O)NC(=O)[C@H](CO)NC(=O)[C@@H](NC(=O)[C@H](Cc1ccccc1)NC(=O)[C@@H](NC(=O)CNC(=O)[C@H](CCC(N)=O)NC(=O)[C@H](CO)NC(=O)[C@@H](N)Cc1c[nH]cn1)[C@@H](C)O)[C@@H](C)O)C(=O)N[C@@H](C)C(=O)N[C@@H](Cc1ccc(O)cc1)C(=O)N[C@@H](CC(=O)O)C(=O)N[C@@H](Cc1ccccc1)C(=O)N[C@H](C(=O)N[C@@H](CCC(N)=O)C(=O)N[C@@H](Cc1c[nH]c2ccccc12)C(=O)N[C@@H](CC(C)C)C(=O)N[C@@H](CCSC)C(=O)N[C@@H](CC(N)=O)C(=O)N[C@H](C(N)=O)[C@@H](C)O)C(C)C [Peptide 33] (H-HSQGTFTSDYSKYLDSRMAYDFVQWLMNT-NH2) |  |  | EC50 [1, 5]: 0.079 ± 0.033 nM; EC50 [2, 6]: 0.059 ± 0.003 nM
2 | CC(C)C[C@H](NC(=O)[C@H](Cc1ccc(O)cc1)NC(=O)[C@H](CCCCN)NC(=O)[C@H](CO)NC(=O)[C@H](Cc1ccc(O)cc1)NC(=O)[C@H](CC(=O)O)NC(=O)[C@H](CO)NC(=O)[C@H](Cc1ccccc1)NC(=O)[C@H](Cc1ccccc1)NC(=O)[C@@H](NC(=O)CNC(=O)[C@H](CCC(N)=O)NC(=O)[C@H](CO)NC(=O)[C@@H](N)Cc1c[nH]cn1)[C@@H](C)O)C(=O)N[C@@H](CC(=O)O)C(=O)N[C@@H](CO)C(=O)N[C@@H](CCCNC(=N)N)C(=O)N[C@@H](CCCNC(=N)N)C(=O)N[C@@H](C)C(=O)N[C@@H](CCC(N)=O)C(=O)N[C@@H](CC(=O)O)C(=O)N[C@@H](Cc1ccccc1)C(=O)N[C@H](C(=O)N[C@@H](CCC(N)=O)C(=O)N[C@@H](Cc1c[nH]c2ccccc12)C(=O)N[C@@H](CC(C)C)C(=O)N[C@@H](CC(C)C)C(=O)N[C@@H](CCC(=O)O)C(=O)N[C@H](C(N)=O)[C@@H](C)O)C(C)C [Peptide 34] (H-HSQGTFFSDYSKYLDSRRAQDFVQWLLET-NH2) |  |  | EC50 [1, 5]: 0.027 ± 0.005 nM; EC50 [2, 6]: 51.9 ± 57.7 nM
3 | CCCCCCCCCCCCCCCC(=O)N[C@@H](CCC(=O)N[C@@H](CCC(=O)NCCCC[C@H](NC(=O)[C@H](CC(=O)O)NC(=O)[C@H](CO)NC(=O)[C@H](CC(C)C)NC(=O)[C@H](Cc1ccccc1)NC(=O)[C@@H](NC(=O)CNC(=O)[C@H](CCC(N)=O)NC(=O)[C@@H](CO)NC(=O)[C@@H](N)Cc1c[nH]cn1)[C@@H](C)O)C(=O)N[C@@H](CO)C(=O)N[C@@H](CCCCN)C(=O)N[C@@H](CC(C)C)C(=O)N[C@@H](CC(C)C)C(=O)N[C@@H](CC(=O)O)C(=O)N[C@@H](CO)C(=O)N[C@@H](CCCNC(=N)N)C(=O)N[C@@H](CCCNC(=N)N)C(=O)N[C@@H](C)C(=O)N[C@@H](CCC(N)=O)C(=O)N[C@@H](CC(=O)O)C(=O)N[C@@H](Cc1ccccc1)C(=O)N[C@H](C(=O)N[C@@H](CCC(N)=O)C(=O)N[C@@H](Cc1c[nH]c2ccccc12)C(=O)N[C@@H](CC(C)C)C(=O)N[C@@H](CCSC)C(=O)N[C@@H](CCC(N)=O)C(=O)N[C@H](C(N)=O)[C@@H](C)O)C(C)C)C(=O)O)C(=O)O [Peptide 37] (H-H[dS]QGTFLSDK([γGlu-γGlu-Palmitoyl])SKLLDSRRAQDFVQWLMQT-NH2; N-terminus assumed) |  |  | EC50 ([1]; Table 3, engineered versus parent peptides, read-out: EC50 hGCGR): 0.037 ± 0.004 nM; EC50 ([2]; Table 3, engineered versus parent peptides, cAMP accumulation, read-out: EC50 hGLP1): 23.5 ± 7.6 nM
4 | HSQGTFTSDYRKYLDERAAWDFVQWLMNT-NH2 [Peptide 3] | 0.427 | 1.35 | 
5 | HSQGTFTSDYSKYLDSRRAQDFVDWLINS-NH2 [Peptide 28] | 0.007 | 0.016 | 
6 | HSQGTFTSDYSKYLDSLMAQDFVQWLMST-NH2 [Peptide 5] | 0.133 | 0.025 | 
7 | KALGQFTFTSDYSKYLDSRRAQDFVQWLMNT-NH2 [Peptide 21] | 14.8 | 4.18 | 
8 | HSVGNFWSDYSKYLDSRRAQDFVQWLMLT-NH2 [Peptide 1] | 16.7 | 8.45 | 
9 | HSQGTFTSDYSKYLDSKRAHDFVQWLLNT-NH2 [Peptide 24] | 0.018 | 0.026 | 
10 | HSQGTFTSDYSKYLDELRAYDFVQWLMNT-NH2 [Peptide 10] | 0.038 | 0.057 | 
11 | HSQGTFTSDYSKYLDSRRAQDFVQWLINY-NH2 [Peptide 13] | 0.039 | 0.078 | 
12 | HSQGIFFSDYSKYLDSRRAQDFVQWLMNT-NH2 [Peptide 30] | > 200 | 0.026 | 
13 | HSQGTFTSDYSKYVEDRRAHDFVQWLMNT-NH2 [Peptide 2] | 0.184 | 2.24 | 
14 | HSQGTFLHDYYYYLDSRRAQDFVQWLMDT-NH2 [Peptide 17] | > 200 | 0.527 | 
15 | ASMFTFFSDYSKYLDSRRAQDFVQWLMLT-NH2 [Peptide 15] | > 200 |  | 
16 | HSQGTFTSDYSKYLDSRRAQDFVMTSMNT-NH2 [Peptide 26] | 8.96 | > 200 | 
17 | HSQGTFTSDYIKLLDSRRAQDFVQWLMNT-NH2 [Peptide 7] | 78.3 | 0.301 | 
18 | HSQGTFTSDYSKYLDSRRAHDFVQWLLNT-NH2 [Peptide 11] | 0.018 | 0.018 | 
19 | HSQGTFTSDYSKYLDSIRAQDFVQWLMDT-NH2 [Peptide 18] | 0.056 | 0.037 | 
20 | INHEQWAFTSDYSKYLDSRRAQDFVQWLMNT-NH2 [Peptide 14] | 16.7 | 2.6 | 
